Substrate: O=P(O)(O)OP(=O)(O)OP(=O)(O)O
Assay: purified protein
Type: biochemical, Trypanosoma brucei
Details: 50 mM HEPES pH 7.8, 50 μM EGTA, 1 mM MgCl2, 30°C, GST fusion

B1: TbrPPX1 (Trypanosoma brucei) (protein)
chain: MTAVVNEFLKRGVRALAARQDSVLVMGNEGGDMDTVIGSIFLAMYLEKRDVFGVGSYVPVLNFEKDDLPLRQDVVKLLSRHNVSTDSIYSVKQSGNGVDFLDLHQMKLPIVLYDHNKLSPEQVYLGERIVGVVDHHEDEQLYVDQTKCLRRICKTGSACTLVAELFNEAGLEVPCPELLLAPIVVDTVNFEPSQKRVTERDILASRLLVGRDDCGDYLTGMFKELMAWKNDIHCLTVPQHLRRDYKNFEFPFISAENKILRVGISSISCRSDELLSVHGVSSVSSNCIEFIKQRSIDMLLLTFAGERTPGSYCRQLGVVAKDEGLAALQAYCKKSPSGLDFTLLEDVTVNEWAFSIYELSDPSVSRKKLVPSLTSFLSVWNNL
Km: 27.2 ± 4.2 µM
kcat: 8.1 ± 1.5 s⁻¹
